From patent US11015206B2, “Compositions and methods comprising sequences having hydroxyphenylpyruvate dioxygenase (HPPD) activity” (PIONEER HI-BRED INTERNATIONAL, INC., priority 2014, dated 2021)
Changes are numbered by the printed parent chain. Numbers in names are those of the source.

B1: 182M: single substitution L182M in SEQ ID NO:2 (protein)
chain: MGPTPTATAAGAAVAAASAAEQAAFRLVGHRNFVRFNPRSDRFQTLAFHHVELWCADAASAAGRFSFALGVPLAARSDLSTGNSAHASLLLRSGSLSLLFTAPYAHGADAATAALPSFSAAAARRFAADHGLAVRAVALRVADAEDAFRASVAAGARPAFGPVDLGRGFRLAEVELYGDVVMRYVSYPDGAAGEPFLPGFEGVASPGAADYGLSRFDHIVGNVPELAPAAAYMAGFTGFHEFAEFTTEDVGTTESGLNSMALANNSENVLLPLNEPVHGTKRRSQIQTFLDHHGGPGVQHIALASDDVLRTLREMRARSAMGGFEFLPPPLSDYYDGVRRCAGDVLTEAQINECQELGVMVDRDDQGVLLQIFTKPVGDRPTFFLEIIQRIGCMEKDEKGQEYQKGGCGGFGKGNFGQLFKSIEDYEKSLEAKQAAAAATAQGS
modifications: Zea mays variant form created by artificial means.
B2: 385V: single substitution L385V in SEQ ID NO:2 (protein)
chain: B1 chain with M182L, L385V
modifications: Zea mays variant form created by artificial means.
B3: 417Q: single substitution G417Q in SEQ ID NO:2 (protein)
chain: B1 chain with M182L, G417Q
modifications: Zea mays variant form created by artificial means.
B4: 417S: single substitution G417S in SEQ ID NO:2 (protein)
chain: B1 chain with M182L, G417S
modifications: Zea mays variant form created by artificial means.
B5: 366E: single substitution Q366E in Round 7, variant 9070 (SEQ ID NO:2) (protein)
chain: B1 chain with M182L, Q366E
modifications: Zea mays variant form created by artificial means.
B6: 432R: single substitution A432R in SEQ ID NO:2 (protein)
chain: B1 chain with M182L, A432R
modifications: Zea mays variant form created by artificial means.

System: 4-hydroxyphenylpyruvate dioxygenase (HPPD)
Assay: HPPD activity coupled assay with HGD; substrate saturation kinetic parameters (kcat, KM)
Assay type: biochemical, Z. mays
Details: Table 6
In short: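 Coupled continuous assay: His-tagged HPPD (5 to 240 nM, E. coli-expressed, Ni-NTA-purified) with 50 nM P. aeruginosa HGD in 25 mM Hepes pH 7, 2 mM ascorbate, 10 μM FeSO4; maleylacetoacetate followed at 320 nm. KM and Vmax from Lineweaver-Burke fits over 3.33–100 μM HPP.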

First: B1
Second: B2
The Km of the first is 1.5-fold higher: 2.88 µM for the first, 1.91 µM for the second.

B3 and B4 are within 1.5-fold of each other in Km: 1.56 µM for the first, 1.41 µM for the second.

B5 and B6 are within 1.5-fold of each other in Km: 1.61 µM for the first, 1.97 µM for the second.

Same assay, conditions: Table 6; single substitutions in SEQ ID NO:2

First: B1
Second: B2
The kcat of the first is 1.9-fold higher: 0.935 s⁻¹ for the first, 0.505 s⁻¹ for the second.

B3 and B4 are within 1.5-fold of each other in kcat: 0.558 s⁻¹ for the first, 0.445 s⁻¹ for the second.

B5 and B6 are within 1.5-fold of each other in kcat: 0.647 s⁻¹ for the first, 0.945 s⁻¹ for the second.

System: 4-hydroxyphenylpyruvate dioxygenase (HPPD)
Assay: ON rate ratio: HPPD reaction rate with vs without inhibitor in the 70 to 90 second interval
Assay type: biochemical, Z. mays
Details: Table 5; tembotrione
In short: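 Time courses of HPPD reactions, 60 or 120 nM enzyme with 100 μM HPP substrate, run with and without 4 μM inhibitor (e.g. mesotrione, tembotrione). Value is the rate with inhibitor over rate without, taken over 70–90 s; higher ratio reflects slower kON.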

Going from B1 to B2, the “ON ratio (parameters with tembotrione)” value falls from 0.79 to 0.75.

First: B3
Second: B4
The “ON ratio (parameters with tembotrione)” value of the first is lower: 0.74 for the first, 0.82 for the second.

First: B5
Second: B6
The “ON ratio (parameters with tembotrione)” value of the first is lower: 0.75 for the first, 0.78 for the second.

System: 4-hydroxyphenylpyruvate dioxygenase (HPPD)
Assay: OFF rate ratio: release of inhibitor from pre-formed enzyme-inhibitor complex
Assay type: biochemical, Z. mays
Details: Table 5; tembotrione
In short: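 HPPD (7.2 μM) pre-incubated 1 h at RT with inhibitor (8 μM), then diluted into 25 mM Hepes pH 7, 2 mM ascorbate, 10 μM FeSO4, 100 μM HPP, 50 nM HGD; A320 followed 12 min. Ratio = steady-state rate with inhibitor over initial rate of inhibitor-free enzyme.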

Compared with B1, B2 is higher in “OFF ratio (parameters with tembotrione)” value: 0.28 for the first, 0.33 for the second.

Compared with B3, B4 is higher in “OFF ratio (parameters with tembotrione)” value: 0.27 for the first, 0.28 for the second.

First: B5
Second: B6
The “OFF ratio (parameters with tembotrione)” value of the first is higher: 0.24 for the first, 0.20 for the second.

System: 4-hydroxyphenylpyruvate dioxygenase (HPPD)
Assay: Insensitivity parameter (ON × OFF) and trait fitness (ON × OFF × kcat/KM or × kcat)
Assay type: biochemical, Z. mays
Details: DKN (diketonitrile form of isoxaflutole)
In short: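 Calculated, not measured directly: ON rate ratio × OFF rate ratio gives an insensitivity parameter serving as a KD surrogate.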

Compared with B1, B2 is higher in “Insensitivity parameter, ON × OFF” value: 0.30 for the first, 0.33 for the second.

First: B3
Second: B4
The “Insensitivity parameter, ON × OFF” value of the first is lower: 0.39 for the first, 0.41 for the second.

Compared with B5, B6 is lower in “Insensitivity parameter, ON × OFF” value: 0.44 for the first, 0.27 for the second.

Same assay, conditions: DKN (isoxaflutole diketonitrile)

First: B1
Second: B2
The “ON × OFF × kcat/km fold vs Round 7, variant 9070” value (“ON × OFF × kcat/km fold” for short) of the first is lower: 0.9 for the first, 1.1 for the second.

Going from B3 to B4, the “ON × OFF × kcat/km fold” value falls from 1.0 to 0.9.

Going from B5 to B6, the “ON × OFF × kcat/km fold” value rises from 1.7 to 2.1.

Same assay, conditions: Mesotrione; Table 6

First: B1
Second: B2
The “Insensitivity parameter, ON × OFF” value of the first is lower: 0.44 for the first, 0.65 for the second.

Going from B3 to B4, the “Insensitivity parameter, ON × OFF” value falls from 0.73 to 0.67.

First: B5
Second: B6
The “Insensitivity parameter, ON × OFF” value of the first is higher: 0.78 for the first, 0.53 for the second.

Same assay, conditions: Sulco (sulcotrione)

First: B1
Second: B2
The “ON × OFF × kcat/km fold” value of the first is lower: 0.9 for the first, 1.0 for the second.

First: B3
Second: B4
The “ON × OFF × kcat/km fold” value of the first is higher: 1.2 for the first, 1.1 for the second.

Compared with B5, B6 is lower in “ON × OFF × kcat/km fold” value: 1.4 for the first, 1.3 for the second.

Same assay, conditions: Sulcotrione

Going from B1 to B2, the “Insensitivity parameter, ON × OFF” value rises from 0.60 to 0.78.

Going from B3 to B4, the “Insensitivity parameter, ON × OFF” value rises from 0.74 to 0.77.

Compared with B5, B6 is lower in “Insensitivity parameter, ON × OFF” value: 0.74 for the first, 0.59 for the second.

Same assay, conditions: Table 5; tembotrione

Compared with B1, B2 is lower in “ON × OFF × kcat, Value”: 5.63 for the first, 5.26 for the second.

First: B3
Second: B4
The “ON × OFF × kcat, Value” of the first is lower: 4.04 for the first, 4.26 for the second.

First: B5
Second: B6
The “ON × OFF × kcat, Value” of the first is lower: 3.58 for the first, 4.75 for the second.

Same assay, conditions: Table 5; tembotrione; fold vs maize wild type HPPD

Going from B1 to B2, the “ON × OFF × kcat, Fold vs wt” value falls from 5.26 to 4.92.

Going from B3 to B4, the “ON × OFF × kcat, Fold vs wt” value rises from 3.77 to 3.98.

Compared with B5, B6 is higher in “ON × OFF × kcat, Fold vs wt” value: 3.35 for the first, 4.44 for the second.

Going from B1 to B2, the “ON × OFF, fold vs wt” value rises from 42.5 to 48.2.

First: B3
Second: B4
The “ON × OFF, fold vs wt” value of the first is lower: 38.4 for the first, 45.2 for the second.

Going from B5 to B6, the “ON × OFF, fold vs wt” value falls from 34.9 to 30.4.

Same assay, conditions: Table 5; tembotrione; insensitivity parameter

Compared with B1, B2 is higher in “ON × OFF (parameters with tembotrione)” value: 0.22 for the first, 0.25 for the second.

Compared with B3, B4 is higher in “ON × OFF (parameters with tembotrione)” value: 0.20 for the first, 0.23 for the second.

Going from B5 to B6, the “ON × OFF (parameters with tembotrione)” value falls from 0.18 to 0.16.

Same assay, conditions: Tembotrione

Compared with B1, B2 is higher in “Insensitivity parameter, ON × OFF” value: 0.23 for the first, 0.34 for the second.

B3 and B4 are the same in “Insensitivity parameter, ON × OFF” value: 0.33 for the first, 0.33 for the second.

First: B5
Second: B6
The “Insensitivity parameter, ON × OFF” value of the first is higher: 0.33 for the first, 0.23 for the second.

Same assay, conditions: Topra (topramezone)

First: B1
Second: B2
The “ON × OFF × kcat/km fold” value of the first is lower: 0.9 for the first, 1.3 for the second.

First: B3
Second: B4
The “ON × OFF × kcat/km fold” value of the first is higher: 1.4 for the first, 1.2 for the second.

First: B5
Second: B6
The “ON × OFF × kcat/km fold” value of the first is higher: 1.9 for the first, 1.4 for the second.

Same assay, conditions: Topramezon

First: B1
Second: B2
The “Insensitivity parameter, ON × OFF” value of the first is lower: 0.29 for the first, 0.49 for the second.

First: B3
Second: B4
The “Insensitivity parameter, ON × OFF” value of the first is lower: 0.39 for the first, 0.41 for the second.

Compared with B5, B6 is lower in “Insensitivity parameter, ON × OFF” value: 0.48 for the first, 0.31 for the second.

Same assay, conditions: meso (mesotrione)

Compared with B1, B2 is higher in “ON × OFF × kcat/km fold” value: 0.8 for the first, 1.0 for the second.

Going from B3 to B4, the “ON × OFF × kcat/km fold” value falls from 1.5 to 1.3.

Compared with B5, B6 is lower in “ON × OFF × kcat/km fold” value: 1.8 for the first, 1.5 for the second.

Same assay, conditions: tembo (tembotrione)

First: B1
Second: B2
The “ON × OFF × kcat/km fold” value of the first is lower: 1.0 for the first, 1.4 for the second.

First: B3
Second: B4
The “ON × OFF × kcat/km fold” value of the first is lower: 1.5 for the first, 1.6 for the second.

Going from B5 to B6, the “ON × OFF × kcat/km fold” value falls from 1.8 to 1.6.

System: 4-hydroxyphenylpyruvate dioxygenase (HPPD)
Assay: Estimate of kcat from initial rate at saturating hydroxyphenylpyruvate without inhibitor (ON rate ratio assay)
Assay type: biochemical, Z. mays
Details: Table 5; single substitutions in Round 7 variant 9070 (SEQ ID NO:2); estimate from initial rate at saturating hydroxyphenylpyruvate without inhibitor
In short: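 Reactions used 60 or 120 nM HPPD and saturating 100 μM hydroxyphenylpyruvate without inhibitor. kcat was estimated from the initial rate at the known enzyme concentration.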

B1 and B2 are within 1.5-fold of each other in kcat: 0.433 s⁻¹ for the first, 0.357 s⁻¹ for the second.

B3 and B4 are within 1.5-fold of each other in kcat: 0.343 s⁻¹ for the first, 0.308 s⁻¹ for the second.

First: B5
Second: B6
The kcat of the first is 1.5-fold lower: 0.335 s⁻¹ for the first, 0.51 s⁻¹ for the second.
